# Laboratory results reported in patent publication US20240026022A1 (OSSIANIX, published 2024).
# B1: TXP1D4 (deimmunized variant VNAR-r2d4 fused to human IgG1 Fc) (Fc fusion)
# VNAR: ARVDQTPQTATKETGESLTINCVLRDSNCALSSTYWYRKKSGSTNEENISKGGRKYVETVESGSKSFSLKINDLTVEDSGTYRCNVVGTWCMSWRDVSGDGTVVTVNA
# notes: also called VNAR-r2d4-Fc; not shown: Human IgG1 AEF Fc and any hinge or linker at the junction
# B2: TXP1 (VNAR-txp1 fused to the N-terminus of human IgG1 Fc with attenuated effector function) (Fc fusion)
# VNAR: ARVDQTPQTITKETGESLTINCVLRDSNCALSSTYWYRKKSGSTNEENISKGGRYVETVNSGSKSFSLKINDLTVEDSGTYRCNVVGTWCMSWRDVYGGGTAVTVNA
# notes: Bivalent VNAR-hFc, VNAR at the N-terminus of hFc IgG1; also called VNAR-txp1-hFc; VNAR antibody TXP1; not shown: Human IgG1 Fc with AEF mutations (E233P/L234V/L235A/ΔG236+A327G/A330S/P331S), and any hinge or linker at the junction
# Legend:
# [1] = molecular target: T1, recombinant human TfR-1 (transferrin receptor-1) (human, UniProt P02786 89-760); assay: SPR
# T1 construct: extracellular domain; In-house purified recombinant protein; also called hTfR-1; hTfR1
# T1 sequence (P02786 89-760): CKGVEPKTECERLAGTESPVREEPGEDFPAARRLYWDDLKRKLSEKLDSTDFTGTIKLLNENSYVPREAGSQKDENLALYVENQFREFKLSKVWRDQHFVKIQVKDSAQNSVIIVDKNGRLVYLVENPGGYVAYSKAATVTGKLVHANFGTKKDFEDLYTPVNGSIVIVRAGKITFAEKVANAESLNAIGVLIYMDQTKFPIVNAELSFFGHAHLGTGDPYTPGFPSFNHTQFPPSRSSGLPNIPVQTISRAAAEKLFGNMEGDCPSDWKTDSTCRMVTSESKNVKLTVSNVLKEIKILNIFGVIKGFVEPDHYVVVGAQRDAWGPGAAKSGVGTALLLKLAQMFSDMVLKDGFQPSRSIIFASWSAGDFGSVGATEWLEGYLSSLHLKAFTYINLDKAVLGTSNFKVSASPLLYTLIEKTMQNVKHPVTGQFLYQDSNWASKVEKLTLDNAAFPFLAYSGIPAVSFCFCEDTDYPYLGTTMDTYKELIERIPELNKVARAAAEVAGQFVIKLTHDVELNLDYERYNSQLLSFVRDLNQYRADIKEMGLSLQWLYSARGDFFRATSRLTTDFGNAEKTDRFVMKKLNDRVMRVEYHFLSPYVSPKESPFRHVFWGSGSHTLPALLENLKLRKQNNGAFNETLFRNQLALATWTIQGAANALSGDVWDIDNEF
# [2] = molecular target: T2, recombinant cynomolgus TfR-1 (cynomolgus, UniProt H9EXL1 89-760 (rhesus entry)); assay: SPR
# T2 construct: also called cTfR-1; cTfR1
# T2 sequence (chain, as listed by the source): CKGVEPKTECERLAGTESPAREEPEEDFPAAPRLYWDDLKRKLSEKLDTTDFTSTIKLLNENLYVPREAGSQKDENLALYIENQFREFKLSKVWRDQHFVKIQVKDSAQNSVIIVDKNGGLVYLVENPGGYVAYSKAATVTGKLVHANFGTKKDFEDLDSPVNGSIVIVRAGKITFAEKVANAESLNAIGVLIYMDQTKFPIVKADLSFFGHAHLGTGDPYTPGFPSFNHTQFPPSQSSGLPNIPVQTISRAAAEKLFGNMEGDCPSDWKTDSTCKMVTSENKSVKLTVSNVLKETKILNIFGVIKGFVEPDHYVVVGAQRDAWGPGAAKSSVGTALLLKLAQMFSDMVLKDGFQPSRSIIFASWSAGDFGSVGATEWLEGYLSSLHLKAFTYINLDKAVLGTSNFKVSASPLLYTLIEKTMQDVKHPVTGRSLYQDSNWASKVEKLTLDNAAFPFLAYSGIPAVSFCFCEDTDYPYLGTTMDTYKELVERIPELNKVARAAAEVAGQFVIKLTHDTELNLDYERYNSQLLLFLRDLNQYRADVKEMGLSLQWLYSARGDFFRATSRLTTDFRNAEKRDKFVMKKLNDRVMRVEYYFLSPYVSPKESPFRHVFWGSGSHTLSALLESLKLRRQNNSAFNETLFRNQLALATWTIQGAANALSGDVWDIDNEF
# [3] = molecular target: T3, human TfR-1 on the cell surface (hCMEC/D3 and SY-SH5Y cells) (human, UniProt P02786 1-760); assay: flow cytometry on hCMEC/D3 cells, 1 h on ice, binding to cell surface TfR1
# T3 construct: whole, on cells; also called cell surface TfR1; cell-surface hTfR1
# T3 sequence (P02786 whole entry): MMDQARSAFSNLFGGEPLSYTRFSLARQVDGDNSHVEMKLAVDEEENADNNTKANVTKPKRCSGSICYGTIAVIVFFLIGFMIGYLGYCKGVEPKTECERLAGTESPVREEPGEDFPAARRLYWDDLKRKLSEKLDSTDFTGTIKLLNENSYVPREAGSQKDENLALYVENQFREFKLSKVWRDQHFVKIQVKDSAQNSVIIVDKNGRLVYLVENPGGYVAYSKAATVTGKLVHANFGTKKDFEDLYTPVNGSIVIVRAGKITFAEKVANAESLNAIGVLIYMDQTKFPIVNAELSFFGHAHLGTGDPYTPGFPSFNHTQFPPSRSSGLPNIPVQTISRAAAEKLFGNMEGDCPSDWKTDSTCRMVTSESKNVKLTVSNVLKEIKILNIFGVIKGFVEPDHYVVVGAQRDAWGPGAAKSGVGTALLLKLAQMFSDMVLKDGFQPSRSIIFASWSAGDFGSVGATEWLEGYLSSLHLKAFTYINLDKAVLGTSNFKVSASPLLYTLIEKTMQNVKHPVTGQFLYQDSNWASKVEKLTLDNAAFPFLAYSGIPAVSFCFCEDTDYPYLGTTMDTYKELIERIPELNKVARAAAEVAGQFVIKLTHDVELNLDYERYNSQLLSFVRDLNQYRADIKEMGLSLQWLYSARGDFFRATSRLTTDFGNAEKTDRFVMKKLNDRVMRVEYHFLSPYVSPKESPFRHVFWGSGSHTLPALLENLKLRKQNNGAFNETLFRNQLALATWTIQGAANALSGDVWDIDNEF
# Experimental: Flow cytometry. hCMEC/D3 cells (Weksler 2013) were seeded onto V-bottom 96-well plates at a density of 1×10⁴ cells/well. After blocking in PBS containing 10% BSA (FACS buffer) for 20 min on ice, cells were incubated with serial dilutions of TXP1. Cells were stained with propidium iodine (PI; Biolegend) for 20 min on ice, followed by anti-hFc conjugated to Alexa488 diluted 1:300 (Jackson ImmunoResearch) for 30 min on ice. After fixation in 4% PFA for 15 min on ice, the cells were analyzed on a CytoFlex flow cytometer (Beckman Coulter). Gating of cells stained with secondary antibody established the fluorescence threshold for the negative signal. The fluorescence intensity of approximately 1000 cells per condition was measured. […] EC50 values were calculated using a four parametric non-linear regression model.
# Functional activity of the fully deimmunised variants was assessed using the human endothelial cell line hCMEC/D3 and the human neuronal cell line SY-SH5Y. Binding to hCMEC/D3 cells was assessed by incubation with serial antibody dilutions for 1 h on ice to avoid internalisation. The cells were fixed and binding to cell surface TfR1 was measured by flow cytometry. […] Internalisation via cell-surface hTfR1 was assessed using the hCMEC/D3 and SY-SH5Y cell lines by incubation with the antibodies for 1 hour at 37° C.
# [4] = molecular target: T3, human TfR-1 on the cell surface …; assay: flow cytometry on hCMEC/D3 cells, percent positive cells, on ice
# Experimental: FIG. 2. Binding of TXP1 to hCMEC/D3 cells by flow cytometry. Approximately 10,000 cells were incubated with serially diluted TXP1 for 1 hour on ice. TXP1 binding was detected using anti-human IgG Alexa488-conjugated secondary antibody. PI staining was used to exclude dead cells from the analysis. The cells were fixed and analyzed by flow cytometry. 1,000 cells per condition were acquired. Gating of cells stained with secondary antibody only allowed to set a fluorescence threshold for negative signal.
# Flow cytometry. hCMEC/D3 cells (Weksler 2013) were seeded onto V-bottom 96-well plates at a density of 1×10⁴ cells/well. After blocking in PBS containing 10% BSA (FACS buffer) for 20 min on ice, cells were incubated with serial dilutions of TXP1. Cells were stained with propidium iodine (PI; Biolegend) for 20 min on ice, followed by anti-hFc conjugated to Alexa488 diluted 1:300 (Jackson ImmunoResearch) for 30 min on ice. After fixation in 4% PFA for 15 min on ice, the cells were analyzed on a CytoFlex flow cytometer (Beckman Coulter). Gating of cells stained with secondary antibody established the fluorescence threshold for the negative signal. The fluorescence intensity of approximately 1000 cells per condition was measured. Dead or dying cells were excluded from the analysis by propidium iodide staining. EC50 values were calculated using a four parametric non-linear regression model.
# recombinant rat TfR-1 = molecular target: T4, recombinant rat TfR-1 (rat, UniProt Q99376 87-761, limits assumed); assay: ELISA, plate coated with recombinant rat TfR-1, detection with anti-hFc HRP and TMB
# T4 construct: also called rTfR-1
# T4 sequence (Q99376 87-761 limits assumed): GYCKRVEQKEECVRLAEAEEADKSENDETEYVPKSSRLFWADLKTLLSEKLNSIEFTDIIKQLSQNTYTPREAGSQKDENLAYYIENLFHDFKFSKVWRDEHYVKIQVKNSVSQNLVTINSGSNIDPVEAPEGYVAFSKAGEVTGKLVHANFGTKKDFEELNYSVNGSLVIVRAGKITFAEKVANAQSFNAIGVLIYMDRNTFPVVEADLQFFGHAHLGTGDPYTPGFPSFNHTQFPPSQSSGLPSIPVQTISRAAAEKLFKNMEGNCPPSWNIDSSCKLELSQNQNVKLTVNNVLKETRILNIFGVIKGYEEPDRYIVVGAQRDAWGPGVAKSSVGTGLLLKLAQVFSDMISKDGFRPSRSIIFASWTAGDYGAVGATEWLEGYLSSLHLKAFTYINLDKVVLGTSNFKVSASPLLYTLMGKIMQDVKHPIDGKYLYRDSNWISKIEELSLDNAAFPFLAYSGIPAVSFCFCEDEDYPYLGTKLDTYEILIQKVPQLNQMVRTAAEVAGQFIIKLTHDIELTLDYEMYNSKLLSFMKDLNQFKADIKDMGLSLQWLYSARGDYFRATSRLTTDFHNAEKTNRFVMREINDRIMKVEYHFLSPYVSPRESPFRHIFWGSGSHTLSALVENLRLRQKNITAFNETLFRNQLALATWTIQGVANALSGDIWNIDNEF
# Experimental: (§1) FIG. 1. Cross-species reactivity of TXP1 assessed by ELISA. Plates were coated with either mouse, human, cynomolgus or rat TfR-1. HSA was used as a negative control. Serial dilutions of TXP1 (a VNAR antibody) were added to the plate and binding was measured by end-point ELISA upon incubation with secondary anti-hFc HRP-conjugated antibodies and visualization with TMB.
# (§2) TfR-1 binding ELISA. Nunc MaxiSorp plates were coated with 100 μl of 1 μg/ml of in-house purified recombinant human, mouse, rat and cynomolgus TfR-1 and incubated at 4° C. overnight. Plates were incubated with blocking buffer (2.5% non-fat dry milk in PBST) for 1 h at RT. Serially-diluted TXP1 was mixed with non-fat dry milk in PBST to a final concentration of 2.5% and incubated for 30 min. Blocked TXP1 solutions (100 μl) were transferred to the blocked plates and incubated for 1 hr. Plates were washed with PBST and incubated with anti-hFc HRP-conjugated antibody diluted 1:5,000 (Sigma) in blocking buffer for 30 min. Plates were washed and developed with SureBlue™ TMB substrate, the reaction stopped with 1% HCl and absorbance measured at 450 nm.
# [5] = molecular target: T1, recombinant human TfR-1 (transferrin …); assay: ELISA, plate coated with human TfR-1, anti-hFc HRP, 4-parameter fit; drawn table under the curves
# Experimental: (§3) FIG. 15. Binding activity of TXP1 and deimmunized variants assessed by ELISA. Plates were coated with either human or cynomolgus or rat TfR-1. HSA was used as a negative control. Serial dilutions of TXP1 (a VNAR antibody) or the variants as Fc fusions were added to the plate and binding was measured by end-point ELISA upon incubation with secondary anti-hFc HRP-conjugated antibodies and visualization with TMB.
# as §2
# [6] = molecular target: T2, recombinant cynomolgus TfR-1; assay: ELISA, plate coated with cynomolgus TfR-1, anti-hFc HRP, 4-parameter fit; drawn table under the curves
# Experimental: as §3, §2
# HSA = molecular target: T5, HSA (human, UniProt P02768 25-609); assay: ELISA, plate coated with HSA, detection with anti-hFc HRP and TMB
# T5 construct: Negative control
# T5 sequence (P02768 25-609): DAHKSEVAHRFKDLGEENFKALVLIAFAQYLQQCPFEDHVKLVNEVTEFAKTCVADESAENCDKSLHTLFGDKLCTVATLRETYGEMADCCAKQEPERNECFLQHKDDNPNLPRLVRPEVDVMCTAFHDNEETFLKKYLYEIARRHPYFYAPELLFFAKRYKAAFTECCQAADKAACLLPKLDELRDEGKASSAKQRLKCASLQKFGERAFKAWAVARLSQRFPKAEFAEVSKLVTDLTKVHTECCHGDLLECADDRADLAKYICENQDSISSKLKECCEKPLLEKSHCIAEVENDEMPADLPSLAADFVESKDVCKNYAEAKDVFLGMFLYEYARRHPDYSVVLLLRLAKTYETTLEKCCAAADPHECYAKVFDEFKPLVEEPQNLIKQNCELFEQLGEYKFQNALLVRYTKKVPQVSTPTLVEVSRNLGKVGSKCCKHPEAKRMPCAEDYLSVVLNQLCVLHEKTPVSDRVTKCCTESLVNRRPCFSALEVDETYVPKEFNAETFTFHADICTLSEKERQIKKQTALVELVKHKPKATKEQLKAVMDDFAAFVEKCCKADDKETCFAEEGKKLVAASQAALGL
# Experimental: as §1, §2
# recombinant mouse TfR-1 = molecular target: T6, recombinant mouse TfR-1 (mouse, UniProt Q62351 89-763, limits assumed); assay: ELISA, plate coated with recombinant mouse TfR-1, detection with anti-hFc HRP and TMB
# T6 construct: also called mTfR-1
# T6 sequence (Q62351 89-763 limits assumed): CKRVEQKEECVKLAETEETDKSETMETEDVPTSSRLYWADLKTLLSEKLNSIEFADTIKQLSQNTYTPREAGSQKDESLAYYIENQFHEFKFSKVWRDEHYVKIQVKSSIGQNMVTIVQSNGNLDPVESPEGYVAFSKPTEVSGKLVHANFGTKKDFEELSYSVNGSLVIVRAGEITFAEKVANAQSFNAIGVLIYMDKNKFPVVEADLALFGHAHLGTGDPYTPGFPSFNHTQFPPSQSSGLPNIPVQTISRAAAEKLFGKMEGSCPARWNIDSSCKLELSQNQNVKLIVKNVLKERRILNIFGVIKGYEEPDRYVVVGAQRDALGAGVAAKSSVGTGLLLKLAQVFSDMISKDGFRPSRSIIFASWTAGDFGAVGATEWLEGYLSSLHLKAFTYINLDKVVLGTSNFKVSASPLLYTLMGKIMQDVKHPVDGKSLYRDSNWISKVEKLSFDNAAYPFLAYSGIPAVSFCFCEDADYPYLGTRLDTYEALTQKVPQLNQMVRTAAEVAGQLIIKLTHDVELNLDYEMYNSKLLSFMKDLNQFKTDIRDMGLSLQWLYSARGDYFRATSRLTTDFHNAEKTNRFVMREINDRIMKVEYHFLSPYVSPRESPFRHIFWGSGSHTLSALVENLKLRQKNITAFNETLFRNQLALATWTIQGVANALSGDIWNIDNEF
# Experimental: as §1, §2
# [7] = molecular target: T1, recombinant human TfR-1 (transferrin …); assay: ELISA on hTfR-1 captured by plate-coated human Tf (receptor already bound to Tf), detection with anti-hFc HRP and TMB
# Experimental: Competition ELISAs. For competition studies, MaxiSorp plates were coated with 100 μl of human Tf, at the concentration of 5 μg/ml overnight at 4° C. Plates were washed with phosphate-buffered saline containing 0.1% Tween20 (PBST) and blocked for 1 h with 2.5% BSA in PBST. Wells were incubated with 50 μl of hTfR-1 at 10 μg/ml for 1 h at RT and washed before adding serially diluted TXP1 and A06 VNAR antibodies for 1 h at RT. Following washing, 100 μl of 1:5,000 anti-hFc HRP-conjugated antibody (Sigma) diluted in 2.5% BSA in PBST was added and incubated for 1 h. Plates were washed and developed with SureBlue™ TMB substrate, the reaction stopped with 1% HCl and absorbance measured at 450 nm.
# TXP1 competition with Tf for binding to TfR-1 was assessed by ELISA. Plates coated with Tf were used to capture hTfR-1 before incubation with serial dilutions of TXP1, A06 VNAR antibody or isotype control G12 VNAR antibody. While TXP1 and A06 VNAR antibody bind with similar nM KD in the absence of Tf (Table 5), when TfR-1 was bound to Tf, TXP1 but not the A06 VNAR antibody was still able to bind the receptor (FIG. 4).
Binder,Kd [1] [nM],koff [1] [s⁻¹],kon [1] [M⁻¹ s⁻¹],Kd [2] [nM],koff [2] [s⁻¹],kon [2] [M⁻¹ s⁻¹],EC50 [3] [nM],EC50 [4] [nM],binding result (recombinant rat TfR-1),EC50 [5] [nM],EC50 [6] [nM],binding result (HSA),binding result (recombinant mouse TfR-1),EC50 (read off the curve) [7] [nM]
B1,3,0.00026,87000,1.7,0.00014,87000,2.1,–,–,–,–,–,–,–
B2,–,–,–,–,–,–,–,10.1,no binding (tested: about 2e-6 M),2.9,3.3,no binding (tested: about 2e-6 M),no binding (tested: about 2e-6 M),~10
